# Experimental data reported in patent US10662413B2, “Recombinant DNA polymerase for improved incorporation of nucleotide analogues” (PERSONAL GENOMICS, INC., priority 2016, dated 2020).
# System: 5′Q-3′-Ga
row,Molecule,conversion rate (C.R.) of extension product [%]
1,"I486W: 9° N-III mutant I486W, nucleotide binding pocket (protein) MILDTDYITENGKPVIRVFKKENGEFKIEYDRTFEPYFYALLKDDSAIEDVKKVTAKRHGTVVKVKRAEKVQKKFLGRPIEVWKLYFNHPQDVPAIRDRIRAHPAVVDIYEYDIPFAKRYLIDKGLIPMEGDEELTMLAFAIATLYHEGEEFGTGPILMISYADGSEARVITWKKIDLPYVDVVSTEKEMIKRFLRVVREKDPDVLITYNGDNFDFAYLKKRCEELGIKFTLGRDGSEPKIQRMGDRFAVEVKGRIHFDLYPVIRRTINLPTYTLEAVYEAVFGKPKEKVYAEEIAQAWESGEGLERVARYSMEDAKVTYELGREFFPMEAQLSRLIGQSLWDVSRSSTGNLVEWFLLRKAYKRNELAPNKPDERELARRRGGYAGGYVKEPERGLWDNIVYLDFRSSAVSIIITHNVSPDTLNREGCKEYDVAPEVGHKFCKDFPGFIPSLLGDLLEERQKIKRKMKATVDPLEKKLLDYRQRLWKILANSFYGYYGYAKARWYCKECAESVTAWGREYIEMVIRELEEKFGFKVLYADTDGLHATIPGADAETVKKKAKEFLKYINPKLPGLLELEYEGFYVRGFFVTKKKYAVIDEEGKITTRGLEIVRRDWSEIAKETQARVLEAILKHGDVEEAVRIVKEVTEKLSKYEVPPEKLVIHEQITRDLRDYKATGPHVAVAKRLAARGVKIRPGTVISYIVLKGSGRIGDRAIPADEFDPTKHRYDAEYYIENQVLPAVERILKAFGYRKEDLRYQKTKQVGLGAWLKVKGKK",81
2,"V410P: 9° N-III mutant V410P, nucleotide binding pocket (protein) MILDTDYITENGKPVIRVFKKENGEFKIEYDRTFEPYFYALLKDDSAIEDVKKVTAKRHGTVVKVKRAEKVQKKFLGRPIEVWKLYFNHPQDVPAIRDRIRAHPAVVDIYEYDIPFAKRYLIDKGLIPMEGDEELTMLAFAIATLYHEGEEFGTGPILMISYADGSEARVITWKKIDLPYVDVVSTEKEMIKRFLRVVREKDPDVLITYNGDNFDFAYLKKRCEELGIKFTLGRDGSEPKIQRMGDRFAVEVKGRIHFDLYPVIRRTINLPTYTLEAVYEAVFGKPKEKVYAEEIAQAWESGEGLERVARYSMEDAKVTYELGREFFPMEAQLSRLIGQSLWDVSRSSTGNLVEWFLLRKAYKRNELAPNKPDERELARRRGGYAGGYVKEPERGLWDNIVYLDFRSSAPSIIITHNVSPDTLNREGCKEYDVAPEVGHKFCKDFPGFIPSLLGDLLEERQKIKRKMKATVDPLEKKLLDYRQRLIKILANSFYGYYGYAKARWYCKECAESVTAWGREYIEMVIRELEEKFGFKVLYADTDGLHATIPGADAETVKKKAKEFLKYINPKLPGLLELEYEGFYVRGFFVTKKKYAVIDEEGKITTRGLEIVRRDWSEIAKETQARVLEAILKHGDVEEAVRIVKEVTEKLSKYEVPPEKLVIHEQITRDLRDYKATGPHVAVAKRLAARGVKIRPGTVISYIVLKGSGRIGDRAIPADEFDPTKHRYDAEYYIENQVLPAVERILKAFGYRKEDLRYQKTKQVGLGAWLKVKGKK",78
3,"I486Y: 9° N-III mutant I486Y, nucleotide binding pocket (protein) MILDTDYITENGKPVIRVFKKENGEFKIEYDRTFEPYFYALLKDDSAIEDVKKVTAKRHGTVVKVKRAEKVQKKFLGRPIEVWKLYFNHPQDVPAIRDRIRAHPAVVDIYEYDIPFAKRYLIDKGLIPMEGDEELTMLAFAIATLYHEGEEFGTGPILMISYADGSEARVITWKKIDLPYVDVVSTEKEMIKRFLRVVREKDPDVLITYNGDNFDFAYLKKRCEELGIKFTLGRDGSEPKIQRMGDRFAVEVKGRIHFDLYPVIRRTINLPTYTLEAVYEAVFGKPKEKVYAEEIAQAWESGEGLERVARYSMEDAKVTYELGREFFPMEAQLSRLIGQSLWDVSRSSTGNLVEWFLLRKAYKRNELAPNKPDERELARRRGGYAGGYVKEPERGLWDNIVYLDFRSSAVSIIITHNVSPDTLNREGCKEYDVAPEVGHKFCKDFPGFIPSLLGDLLEERQKIKRKMKATVDPLEKKLLDYRQRLYKILANSFYGYYGYAKARWYCKECAESVTAWGREYIEMVIRELEEKFGFKVLYADTDGLHATIPGADAETVKKKAKEFLKYINPKLPGLLELEYEGFYVRGFFVTKKKYAVIDEEGKITTRGLEIVRRDWSEIAKETQARVLEAILKHGDVEEAVRIVKEVTEKLSKYEVPPEKLVIHEQITRDLRDYKATGPHVAVAKRLAARGVKIRPGTVISYIVLKGSGRIGDRAIPADEFDPTKHRYDAEYYIENQVLPAVERILKAFGYRKEDLRYQKTKQVGLGAWLKVKGKK",82
4,"K477F: 9° N-III mutant K477F, nucleotide binding pocket (protein) MILDTDYITENGKPVIRVFKKENGEFKIEYDRTFEPYFYALLKDDSAIEDVKKVTAKRHGTVVKVKRAEKVQKKFLGRPIEVWKLYFNHPQDVPAIRDRIRAHPAVVDIYEYDIPFAKRYLIDKGLIPMEGDEELTMLAFAIATLYHEGEEFGTGPILMISYADGSEARVITWKKIDLPYVDVVSTEKEMIKRFLRVVREKDPDVLITYNGDNFDFAYLKKRCEELGIKFTLGRDGSEPKIQRMGDRFAVEVKGRIHFDLYPVIRRTINLPTYTLEAVYEAVFGKPKEKVYAEEIAQAWESGEGLERVARYSMEDAKVTYELGREFFPMEAQLSRLIGQSLWDVSRSSTGNLVEWFLLRKAYKRNELAPNKPDERELARRRGGYAGGYVKEPERGLWDNIVYLDFRSSAVSIIITHNVSPDTLNREGCKEYDVAPEVGHKFCKDFPGFIPSLLGDLLEERQKIKRKMKATVDPLEKFLLDYRQRLIKILANSFYGYYGYAKARWYCKECAESVTAWGREYIEMVIRELEEKFGFKVLYADTDGLHATIPGADAETVKKKAKEFLKYINPKLPGLLELEYEGFYVRGFFVTKKKYAVIDEEGKITTRGLEIVRRDWSEIAKETQARVLEAILKHGDVEEAVRIVKEVTEKLSKYEVPPEKLVIHEQITRDLRDYKATGPHVAVAKRLAARGVKIRPGTVISYIVLKGSGRIGDRAIPADEFDPTKHRYDAEYYIENQVLPAVERILKAFGYRKEDLRYQKTKQVGLGAWLKVKGKK",82
5,"V410G: 9° N-III mutant V410G, nucleotide binding pocket (protein) MILDTDYITENGKPVIRVFKKENGEFKIEYDRTFEPYFYALLKDDSAIEDVKKVTAKRHGTVVKVKRAEKVQKKFLGRPIEVWKLYFNHPQDVPAIRDRIRAHPAVVDIYEYDIPFAKRYLIDKGLIPMEGDEELTMLAFAIATLYHEGEEFGTGPILMISYADGSEARVITWKKIDLPYVDVVSTEKEMIKRFLRVVREKDPDVLITYNGDNFDFAYLKKRCEELGIKFTLGRDGSEPKIQRMGDRFAVEVKGRIHFDLYPVIRRTINLPTYTLEAVYEAVFGKPKEKVYAEEIAQAWESGEGLERVARYSMEDAKVTYELGREFFPMEAQLSRLIGQSLWDVSRSSTGNLVEWFLLRKAYKRNELAPNKPDERELARRRGGYAGGYVKEPERGLWDNIVYLDFRSSAGSIIITHNVSPDTLNREGCKEYDVAPEVGHKFCKDFPGFIPSLLGDLLEERQKIKRKMKATVDPLEKKLLDYRQRLIKILANSFYGYYGYAKARWYCKECAESVTAWGREYIEMVIRELEEKFGFKVLYADTDGLHATIPGADAETVKKKAKEFLKYINPKLPGLLELEYEGFYVRGFFVTKKKYAVIDEEGKITTRGLEIVRRDWSEIAKETQARVLEAILKHGDVEEAVRIVKEVTEKLSKYEVPPEKLVIHEQITRDLRDYKATGPHVAVAKRLAARGVKIRPGTVISYIVLKGSGRIGDRAIPADEFDPTKHRYDAEYYIENQVLPAVERILKAFGYRKEDLRYQKTKQVGLGAWLKVKGKK",69
6,"D480G: 9° N-III mutant D480G, nucleotide binding pocket (protein) MILDTDYITENGKPVIRVFKKENGEFKIEYDRTFEPYFYALLKDDSAIEDVKKVTAKRHGTVVKVKRAEKVQKKFLGRPIEVWKLYFNHPQDVPAIRDRIRAHPAVVDIYEYDIPFAKRYLIDKGLIPMEGDEELTMLAFAIATLYHEGEEFGTGPILMISYADGSEARVITWKKIDLPYVDVVSTEKEMIKRFLRVVREKDPDVLITYNGDNFDFAYLKKRCEELGIKFTLGRDGSEPKIQRMGDRFAVEVKGRIHFDLYPVIRRTINLPTYTLEAVYEAVFGKPKEKVYAEEIAQAWESGEGLERVARYSMEDAKVTYELGREFFPMEAQLSRLIGQSLWDVSRSSTGNLVEWFLLRKAYKRNELAPNKPDERELARRRGGYAGGYVKEPERGLWDNIVYLDFRSSAVSIIITHNVSPDTLNREGCKEYDVAPEVGHKFCKDFPGFIPSLLGDLLEERQKIKRKMKATVDPLEKKLLGYRQRLIKILANSFYGYYGYAKARWYCKECAESVTAWGREYIEMVIRELEEKFGFKVLYADTDGLHATIPGADAETVKKKAKEFLKYINPKLPGLLELEYEGFYVRGFFVTKKKYAVIDEEGKITTRGLEIVRRDWSEIAKETQARVLEAILKHGDVEEAVRIVKEVTEKLSKYEVPPEKLVIHEQITRDLRDYKATGPHVAVAKRLAARGVKIRPGTVISYIVLKGSGRIGDRAIPADEFDPTKHRYDAEYYIENQVLPAVERILKAFGYRKEDLRYQKTKQVGLGAWLKVKGKK",80
7,"D480A: 9° N-III mutant D480A, nucleotide binding pocket (protein) MILDTDYITENGKPVIRVFKKENGEFKIEYDRTFEPYFYALLKDDSAIEDVKKVTAKRHGTVVKVKRAEKVQKKFLGRPIEVWKLYFNHPQDVPAIRDRIRAHPAVVDIYEYDIPFAKRYLIDKGLIPMEGDEELTMLAFAIATLYHEGEEFGTGPILMISYADGSEARVITWKKIDLPYVDVVSTEKEMIKRFLRVVREKDPDVLITYNGDNFDFAYLKKRCEELGIKFTLGRDGSEPKIQRMGDRFAVEVKGRIHFDLYPVIRRTINLPTYTLEAVYEAVFGKPKEKVYAEEIAQAWESGEGLERVARYSMEDAKVTYELGREFFPMEAQLSRLIGQSLWDVSRSSTGNLVEWFLLRKAYKRNELAPNKPDERELARRRGGYAGGYVKEPERGLWDNIVYLDFRSSAVSIIITHNVSPDTLNREGCKEYDVAPEVGHKFCKDFPGFIPSLLGDLLEERQKIKRKMKATVDPLEKKLLAYRQRLIKILANSFYGYYGYAKARWYCKECAESVTAWGREYIEMVIRELEEKFGFKVLYADTDGLHATIPGADAETVKKKAKEFLKYINPKLPGLLELEYEGFYVRGFFVTKKKYAVIDEEGKITTRGLEIVRRDWSEIAKETQARVLEAILKHGDVEEAVRIVKEVTEKLSKYEVPPEKLVIHEQITRDLRDYKATGPHVAVAKRLAARGVKIRPGTVISYIVLKGSGRIGDRAIPADEFDPTKHRYDAEYYIENQVLPAVERILKAFGYRKEDLRYQKTKQVGLGAWLKVKGKK",81
